Source: patent US20220155321A1 (published 2022)

Target: T1, peptide on HLA-A*01:01 (human)
T1 peptide: ASSLPTTMNY
Assay: multimer staining

Row | Binder | binding result
1 | Reference C (TCR, V domains shown) Valpha: RKEVEQDPGPFNVPEGATVAFNCTYSNSASQSFFWYRQDCRKEPKLLMSVYSSGNEDGRFTAQLNRASQYISLLIRDSKLSDSATYLCVVPRMDSSYKLIFGSGTRLLVRP Vbeta: KAGVTQTPRYLIKTRGQQVTLSCSPISGHRSVSWYQQTPGQGLQFLFEYFSETQRNKGNFPGRFSGRQFSNSRSEMNVSTLELGDSALYLCASSSTGARRSREQYFGPGTRLTVT | recognises
2 | Reference E (TCR, V domains shown) Valpha: GQQVMQIPQYQHVQEGEDFTTYCNSSTTLSNIQWYKQRPGGHPVFLIQLVKSGEVKKQKRLTFQFGEAKKNSSLHITATQTTDVGTYFCAGQGNRDDKIIFGKGTRLHILP Vbeta: DGGITQSPKYLFRKEGQNVTLSCEQNLNHDAMYWYRQDPGQGLRLIYYSQIVNDFQKGDIAEGYSVSREKKESFPLTVTSAQKNPTAFYLCASSLEWGPYEQYFGPGTRLTVT | recognises
3 | Reference F (TCR, V domains shown) Valpha: QKEVEQNSGPLSVPEGAIASLNCTYSDRGSQSFFWYRQYSGKSPELIMFIYSNGDKEDGRFTAQLNKASQYVSLLIRDSQPSDSATYLCAVKDNNARLMFGDGTQLVVKP Vbeta: KAGVTQTPRYLIKTRGQQVTLSCSPISGHRSVSWYQQTPGQGLQFLFEYFSETQRNKGNFPGRFSGRQFSNSRSEMNVSTLELGDSALYLCASSLSSGLYEQYFGPGTRLTVT | recognises
4 | Reference G (TCR, V domains shown) Valpha: SQQGEEDPQALSIQEGENATMNCSYKTSINNLQWYRQNSGRGLVHLILIRSNEREKHSGRLRVTLDTSKKSSSLLITASRAADTASYFCATAVFNFGNEKLTFGTGTRLTIIP Vbeta: KAGVTQTPRYLIKTRGQQVTLSCSPISGHRSVSWYQQTPGQGLQFLFEYFSETQRNKGNFPGRFSGRQFSNSRSEMNVSTLELGDSALYLCASSSMTSGGPWEQYFGPGTRLTVT | recognises
5 | Reference H (TCR, V domains shown) Valpha: GESVGLHLPTLSVQEGDNSIINCAYSNSASDYFIWYKQESGKGPQFIIDIRSNMDKRQGQRVTVLLNKTVKHLSLQIAATQPGDSAVYFCAENMGGAGKSTFGDGTTLTVKP Vbeta: not shown | recognises
